Assay results taken from patent US20100226910.

Target: Amyloid beta1-42 standard (from β-Amyloid1-42 ELISA, Human kit, Sigma BE0200), P05067
Sequence (P05067 whole entry, looked up, tested part not stated): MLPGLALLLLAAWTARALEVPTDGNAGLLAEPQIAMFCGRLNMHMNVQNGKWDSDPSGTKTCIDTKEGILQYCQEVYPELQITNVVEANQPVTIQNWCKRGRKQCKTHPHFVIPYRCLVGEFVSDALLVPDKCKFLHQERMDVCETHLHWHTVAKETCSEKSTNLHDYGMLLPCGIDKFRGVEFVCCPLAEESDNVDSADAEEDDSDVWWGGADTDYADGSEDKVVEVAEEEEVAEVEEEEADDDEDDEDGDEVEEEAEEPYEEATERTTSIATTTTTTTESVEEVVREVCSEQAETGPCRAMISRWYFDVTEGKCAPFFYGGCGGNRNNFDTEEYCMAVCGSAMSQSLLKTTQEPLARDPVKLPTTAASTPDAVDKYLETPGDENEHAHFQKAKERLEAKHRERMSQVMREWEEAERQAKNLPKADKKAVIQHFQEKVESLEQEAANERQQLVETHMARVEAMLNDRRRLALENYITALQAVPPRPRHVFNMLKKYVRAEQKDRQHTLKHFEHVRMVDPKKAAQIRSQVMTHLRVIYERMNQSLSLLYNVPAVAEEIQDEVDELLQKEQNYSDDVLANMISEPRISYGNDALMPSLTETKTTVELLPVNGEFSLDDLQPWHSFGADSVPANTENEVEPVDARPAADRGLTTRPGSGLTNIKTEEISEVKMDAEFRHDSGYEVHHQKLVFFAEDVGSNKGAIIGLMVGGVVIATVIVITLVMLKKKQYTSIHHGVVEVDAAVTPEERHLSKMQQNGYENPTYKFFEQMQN

B1: Tissue kallikrein (SEQ ID NO:1) (protein)
chain: IIGGRECEKDSHPWQVAIYHYSSFQCGGVLVDPKWVLTAAHCKNDNYQVWLGRHNLFENEVTAQFFGVTADFPHPGFNLSLLKNHTKADGKDYSHDLMLLRLQSPAKITDAVKVLELPTQEPELGSTCQASGWGSIEPGPDDFEFPDEIQCVELTLLQNTFCADAHPDKVTESMLCAGYLPGGKDTCMGDSGGPLICNGMWQGITSWGHTPCGSANKPSIYTKLIFYLDWINDTITENP
% Cleavage (ELISA of remaining Aβ1-42), KLK1 1 pg/mL, 3 hrs: 0% | % Cleavage (ELISA of remaining Aβ1-42), KLK1 1 pg/mL, 18 hrs: 0% | % Cleavage (ELISA of remaining Aβ1-42), KLK1 10 pg/mL, 3 hrs: 0% | % Cleavage (ELISA of remaining Aβ1-42), KLK1 10 pg/mL, 18 hrs: 15% | % Cleavage (ELISA of remaining Aβ1-42), KLK1 100 pg/mL, 3 hrs: 0% | % Cleavage (ELISA of remaining Aβ1-42), KLK1 100 pg/mL, 18 hrs: 19.5% | % Cleavage (ELISA of remaining Aβ1-42), KLK1 1 ng/mL, 3 hrs: 19.6% | % Cleavage (ELISA of remaining Aβ1-42), KLK1 1 ng/mL, 18 hrs: 50% | % Cleavage (ELISA of remaining Aβ1-42), KLK1 10 ng/mL, 3 hrs: 36.6% | % Cleavage (ELISA of remaining Aβ1-42), KLK1 10 ng/mL, 18 hrs: 88.4% | % Cleavage (ELISA of remaining Aβ1-42), KLK1 100 ng/mL, 3 hrs: 71.7% | % Cleavage (ELISA of remaining Aβ1-42), KLK1 100 ng/mL, 18 hrs: 99.8% | % Cleavage (ELISA of remaining Aβ1-42), KLK1 1 µg/mL, 3 hrs: 92.1% | % Cleavage (ELISA of remaining Aβ1-42), KLK1 1 µg/mL, 18 hrs: 100%
